This sample holds only a part of the variants without activity.
B1: TPR 5TU (parent)
chain: GGAUCUUCUCGAUCUAACAAAAAAGACAAAUCUGCCACAAAGCUUGAGAGCAUCUUCGGAUGCAGAGGCGGCAGCCUUCGGUGGCGCGAUAGCGCCAACGUUCUCAACUAUGACACGCAAAACGCGUGCUCCGUUGAAUGGAGUUUAUCAUG

Variants of: B1
Assay: polymerase ribozyme fitness, log enrichment relative to wild type (log ratio); higher = more active; in vitro selection for triplet polymerase activity
In short: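 The heterodimeric triplet polymerase ribozyme's subunits were each mutagenized into PCR-built libraries and transcribed. Every library was selected once, in triplicate, by annealing with a biotinylated primer, the partner subunit and triplets, incubating frozen at −7 °C, gel-excising extended constructs, capturing on streptavidin beads and running RT-PCR. Input and output libraries were Illumina-sequenced, with genotypes kept only at ≥10 input reads and ≥1 read per output. Fitness, from inverse-variance-weighted replicate averages, is the base-2 logarithm of genotype enrichment over wild-type enrichment.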
In the case of GGAUCUUCUCGAUCUAACAAAAAAGACAAAUCUGCCACAAAGCUUGAGAACAUCUUCGGAUGCAGAGGCGGCAGCCUUCGGUGUCGCGAUAGCGCCAACGUUCUCAACUAUGACACGCAAAACGCGUGCUCCGUUGAAUGGAGUUUAUCAUG, the “polymerase ribozyme fitness (log ratio)” value is reported as -1.58.
For GGAUCUUCUCGAUCUAGCAAAAAAGACAAAUCUGCCACAAAGCUUGACAGCAUCUUCGGAUGCAGAGGCGGCAGCCUUCGGUGGCGCGAUAGCAUCAACGUUCUCAACUAUGACACGCAAAACGCGUGCUCCGUUGAAUGGAGUUUAUCAUG, the “polymerase ribozyme fitness (log ratio)” value was -3.29.
For GGAUCUUCUCGAUCUAACAAAAAAGACAAAUCUGCCACAAAGCUUGAGAGCAUCUUCGGAUGCAGAGGCGGCAGCCCUCGGUGGCGCGAUUGCGCCAACGUUCUCAACUAUGACACGCAAAACGCGUGCUCCGUUGAAUGGAGUUAAUCAUG, the “polymerase ribozyme fitness (log ratio)” value was ≤ -4.2.
For GGACCUUCUCGAUCUAACAAAAAAGACAAAUCUGCCAUAAAGCUUGAGAGCAUCGUCGGAUGCAGAGGCGGCAGCCUUCGGUGGCGAGAUAGCGCCAACGUUCUCGACUAUGACACGCAAAACGCGUGCUCCGUUGAAUGGAGUUUAUCAUG, the “polymerase ribozyme fitness (log ratio)” value was ≤ -4.2.
For GGAUCUUCUCGAUCUAACAAAAAAGACAAAUCUGCCACAAAGCUUGAGAGCAUCUUCGGAUGCAGAGGCGGCAGCCUUCGGUGGCGCGAUAGCGCCGACGUUCUCAACUAUGACACGCAAAACGCGUGCUCCGUUGAAUGCAGUUUAUCAUG, the “polymerase ribozyme fitness (log ratio)” value was -1.86.
With GGAUCUUCUCGAUCUAACAAAAAAGACAAAUCUGCCCCAAGGCUUGAGAGCAUCUUCGGAUGCAGAGGCGGCAGCCUUCGGUGGCCCGAUAUCGUCAACGUUCUCAACUAUGACACGCAAAACGCGUGCUCCGUUGAAUGGAGUUUAUCAUG the “polymerase ribozyme fitness (log ratio)” value was -3.05.
With GGAUCUUCUCGAUCUAACAAAAAAGACAAAUCUGCCACAAAGCUUGAGAGCAUCUUCGGAUGCAGAGGCGGCAGCCUUCGGUGGCGCGAUAACGCCAACGGUCUCAACUAUGACACGCAAAACGCGUGCUCCGUUGAAUGGAGUUUAUUAUG the “polymerase ribozyme fitness (log ratio)” value was -3.56.
In the case of GGAUCUUCUCGAUCUAACAAAAAAGACAAAUCUGCCACAAAGCUUGAGAGCAUCUUCGGAUGUAGAGGCAGCAGCCUUCCGUCGCGCGAUAGCGCCAACGUUCUCAAGUAUGACAUGCAAAACGCGUGCUCCGUUGAAUGGAGUUUAUCAUG, the “polymerase ribozyme fitness (log ratio)” value is reported as ≤ -4.2.
For GGAUCUUCUCGAUCUAACAAAAAAGACAAAUCUGCCACAAAGCUUGAGAGCAAAUUCAGAUGCAGAGGCGGCAGCCUUCGGUGGUGCGAUAGCGCCAACGUUCUCAACUAUGACACGCAAAACGCGUGCUCCGUUGAAUGGAGUUUAUCAUG, the “polymerase ribozyme fitness (log ratio)” value was -0.519.
With GGAUCUUCUCGAUCUAACAAAAAAGACAAAUCUGCCACAAAGCUUGAGGGCCUCUUCGGAUGCAGAGGCGGCAGCCUUCGGUGGCGCGAUAGCGCCAACGUUCUCAACUAUGACACGCAAAACGCGUGCUCCGUUGAAUGGAGUUUAUCAUG the “polymerase ribozyme fitness (log ratio)” value was -1.27.
With GGAUCUUCUCGAUCUUACAAAAAAGACAAAUCUGCCACAAAGCUUUAGAGCAUCUUCGCAUGCAGAGGCGGCAGCGUUCGGUGUUGCGAUAGCGCCAACGUCCUCAACUAUGACACGCAAAACGCGUGCUCCGUUGAUUGGAGUUUAUCAUG the “polymerase ribozyme fitness (log ratio)” value was ≤ -4.2.
With GGAUCUUCUCGAUCUAAGAAAAAAGACAAAUCUGCCACAAAGCUUGAGAGCAUCUUCGGAUGCAGAGGCGGCAGCCUUCGGUGGCGCGAUAGUGCCAGCGUUCUCAACUAUGACACGCACAACGCGUGCUCCGUUGAAUGUAGUUUAUCAUG the “polymerase ribozyme fitness (log ratio)” value was 0.17.
In the case of GGAUCUUCUCGAUCUAACAAAAAAGACAAAUCUGCCACAGAGCUUGAUAGCAUCUUCUGAUGCAGAGGCGGCAGCAUUCGGUGGCGCGAUAGCGCCAACGUUCUCAACUAUGACACGCAAAACGCGUGCUCCGUUGAAUGGAGUUUAUCAUG, the “polymerase ribozyme fitness (log ratio)” value is reported as ≤ -4.2.
In the case of GGAUCUUCUCGAUCUAACAAAAAAGACAAAUCUGCCACAAAGCUUGAGAGCAUCUUCGGAUGCAGAGGCGGCAGCCUUCGGUUGCGCGAUAGCGCCAACGUUCUCAACUAUGACACGCAAAACGCGUGCUCCGUUGAAUGGAGUUAAUCAUG, the “polymerase ribozyme fitness (log ratio)” value is reported as -1.19.
For GGAUCUUCUCGAUCUGACAAAAAAGACAAAUCUGCCACAAAGCUUGAGAGCAUCUUCGGAUGCAGAGGCGGCAGCCUUCGGUGGCGUGAUAGCGCCAACGUUCUCAACUAUGACACGCAAAACGCGUGCUCCGUUGAAUGGAGUUUAUCAUG, the “polymerase ribozyme fitness (log ratio)” value was -1.85.
For GGAUCUUCUCGAUCUAACAAAAAAGACAAAUCUGCCACAUAGCUUGAGAGCAUCUUCGGAUGCAGAGGCGGCAGCCUUCGGUGGCGCGAUAGCGCCAACGUUCUCAACUAUGAUACGCAAAACGCGUGCUCCGUUGAAUGGAGUUUAUCAUG, the “polymerase ribozyme fitness (log ratio)” value was -2.19.
With GGAUCUUCUCGAUCUAACAAAAAAGACAAAUCUGCCACAAAGCUUGAGAGCAUCUUCGGAUGCAGAGGCGGCAGCCUUCGGUGGCGCGAUAGCGCCAACGUUCUCAACUAUGACCCGCAAAACGCGUGCUCCGUUGAAUGGAGUUUAUCAUG the “polymerase ribozyme fitness (log ratio)” value was -0.641.
With GGAUCUUCUCGAUCUAACAAAAAAGACAAAUCUGCCACAAAGCUUGAGAGCAUCUUCGGAUGCAGAGGCGGCAGCCUUCGGUGGUGCGAUAGCGCCAACGUUCUCAACUAUGACACGCAAAACGCGUGCGCCGUUGAAUGGAGUUUAUCAUG the “polymerase ribozyme fitness (log ratio)” value was -3.71.
For GGAUCUUCUCGAUCUAAGAAAAAAGACAAAUCUGCCACAACGCUUGAGAGCAUCUUCGGAUGCAGAGGCGGCAGCCUUCGGUGGAGCGAUAGCGCCAACGUUCUCAACUAUGACACGCAAAACGCUUGCUCCGUUGAAUGGAGUUUAUCAUG, the “polymerase ribozyme fitness (log ratio)” value was -0.946.
